Substitutions are numbered along the chain they refer to. In names and notes the source's numbering stands.
B1: V229A: NTR point mutant (protein, UniProt P20789 1-424, looked up, variant V229A)
Neurotensin receptor type 1: MHLNSSVPQGTPGEPDAQPFSGPQSEMEATFLALSLSNGSGNTSESDTAGPNSDLDVNTDIYSKVLVTAIYLALFVVGTVGNSVTAFTLARKKSLQSLQSTVHYHLGSLALSDLLILLLAMPVELYNFIWVHHPWAFGDAGCRGYYFLRDACTYATALNVASLSVERYLAICHPFKAKTLMSRSRTKKFISAIWLASALLAIPMLFTMGLQNRSGDGTHPGGLVCTPIADTATVKVVIQVNTFMSFLFPMLVISILNTVIANKLTVMVHQAAEQGRVCTVGTHNGLEHSTFNMTIEPGRVQALRHGVLVLRAVVIAFVVCWLPYHVRRLMFCYISDEQWTTFLFDFYHYFYMLTNALFYVSSAINPILYNLVSANFRQVFLSTLACLCPGWRHRRKKRPTFSRKPNSMSSNHAFSTSATRETLY
B2: E219A: A2aR point mutant (protein, UniProt P29274 1-412, looked up, variant E219A)
Adenosine receptor A2a: MPIMGSSVYITVELAIAVLAILGNVLVCWAVWLNSNLQNVTNYFVVSLAAADIAVGVLAIPFAITISTGFCAACHGCLFIACFVLVLTQSSIFSLLAIAIDRYIAIRIPLRYNGLVTGTRAKGIIAICWVLSFAIGLTPMLGWNNCGQPKEGKNHSQGCGEGQVACLFEDVVPMNYMVYFNFFACVLVPLLLMLGVYLRIFLAARRQLKQMESQPLPGARARSTLQKEVHAAKSLAIIVGLFALCWLPLHIINCFTFFCPDCSHAPLWLMYLAIVLSHTNSVVNPFIYAYRIREFRQTFRKIIRSHVLRQQEPFKAAGTSARVLAAHGSDGEQVSLRLNGHPPGVWANGSAPHPERRPNGYALGLVSGGSAQESQGNTGLPDVELLSHELKGVCPEPPGLDDPLAQDGAGVS
B3: Q226A: A2aR point mutant (protein, UniProt P29274 1-412, looked up, variant Q226A)
Adenosine receptor A2a: B2 Adenosine receptor A2a with A219E, Q226A
B4: G123A: A2aR point mutant (protein, UniProt P29274 1-412, looked up, variant G123A)
Adenosine receptor A2a: B2 Adenosine receptor A2a with G123A, A219E
B5: P260A: A2aR point mutant (protein, UniProt P29274 1-412, looked up, variant P260A)
Adenosine receptor A2a: B2 Adenosine receptor A2a with A219E, P260A
B6: S263A: A2aR point mutant (protein, UniProt P29274 1-412, looked up, variant S263A)
Adenosine receptor A2a: B2 Adenosine receptor A2a with A219E, S263A
B7: N284A: A2aR point mutant (protein, UniProt P29274 1-412, looked up, variant N284A)
Adenosine receptor A2a: B2 Adenosine receptor A2a with A219E, N284A
B8: P313A: A2aR point mutant (protein, UniProt P29274 1-412, looked up, variant P313A)
Adenosine receptor A2a: B2 Adenosine receptor A2a with A219E, P313A
B9: T119A: A2aR point mutant (protein, UniProt P29274 1-412, looked up, variant T119A)
Adenosine receptor A2a: B2 Adenosine receptor A2a with T119A, A219E
B10: G118A: A2aR point mutant (protein, UniProt P29274 1-412, looked up, variant G118A)
Adenosine receptor A2a: B2 Adenosine receptor A2a with G118A, A219E
B11: T88A: A2aR point mutant (protein, UniProt P29274 1-412, looked up, variant T88A)
Adenosine receptor A2a: B2 Adenosine receptor A2a with T88A, A219E
B12: L267A: A2aR point mutant (protein, UniProt P29274 1-412, looked up, variant L267A)
Adenosine receptor A2a: B2 Adenosine receptor A2a with A219E, L267A
B13: K315A: A2aR point mutant (protein, UniProt P29274 1-412, looked up, variant K315A)
Adenosine receptor A2a: B2 Adenosine receptor A2a with A219E, K315A
B14: K122A: A2aR point mutant (protein, UniProt P29274 1-412, looked up, variant K122A)
Adenosine receptor A2a: B2 Adenosine receptor A2a with K122A, A219E
B15: S223A: A2aR point mutant (protein, UniProt P29274 1-412, looked up, variant S223A)
Adenosine receptor A2a: B2 Adenosine receptor A2a with A219E, S223A
B16: T224A: A2aR point mutant (protein, UniProt P29274 1-412, looked up, variant T224A)
Adenosine receptor A2a: B2 Adenosine receptor A2a with A219E, T224A
B17: L241A: A2aR point mutant (protein, UniProt P29274 1-412, looked up, variant L241A)
Adenosine receptor A2a: B2 Adenosine receptor A2a with A219E, L241A
B18: K227A: A2aR point mutant (protein, UniProt P29274 1-412, looked up, variant K227A)
Adenosine receptor A2a: B2 Adenosine receptor A2a with A219E, K227A
B19: H230A: A2aR point mutant (protein, UniProt P29274 1-412, looked up, variant H230A)
Adenosine receptor A2a: B2 Adenosine receptor A2a with A219E, H230A
B20: V57A: A2aR point mutant (protein, UniProt P29274 1-412, looked up, variant V57A)
Adenosine receptor A2a: B2 Adenosine receptor A2a with V57A, A219E
B21: H75A: A2aR point mutant (protein, UniProt P29274 1-412, looked up, variant H75A)
Adenosine receptor A2a: B2 Adenosine receptor A2a with H75A, A219E
B22: A54L: A2aR point mutant (protein, UniProt P29274 1-412, looked up, variant A54L)
Adenosine receptor A2a: B2 Adenosine receptor A2a with A54L, A219E
B23: Q311A: A2aR point mutant (protein, UniProt P29274 1-412, looked up, variant Q311A)
Adenosine receptor A2a: B2 Adenosine receptor A2a with A219E, Q311A
B24: L272A: A2aR point mutant (protein, UniProt P29274 1-412, looked up, variant L272A)
Adenosine receptor A2a: B2 Adenosine receptor A2a with A219E, L272A
B25: G114A: A2aR point mutant (protein, UniProt P29274 1-412, looked up, variant G114A)
Adenosine receptor A2a: B2 Adenosine receptor A2a with G114A, A219E
B26: R220A: A2aR point mutant (protein, UniProt P29274 1-412, looked up, variant R220A)
Adenosine receptor A2a: B2 Adenosine receptor A2a with A219E, R220A

Key:
[1] = Thermostability of neurotensin receptor (NTR) mutants (3H-neurotensin binding); assay type: physicochemical; details: Ligand(+) format
Experimental: (§1) FIG. 12 Flow chart showing the two different assay formats of ligand (+) and ligand (−) used to determine receptor thermostablity.
3. Mutants tested for thermostability by heating in the absence of the agonist were re-tested using a slightly different assay where the mutants were heated in the presence of ^3H-neurotensin (Ligand(+) format in FIG. 12). […] All of these also have increased thermostability. • 5. Preferred combinations are • a. Nag7m F358A+A86L+1260A+F342A Tm 51° C. (neurotensin bound) • b. Nag7n F358A+H103A+1260A+F342A Tm 51° C. (neurotensin bound) • Wildtype NTR has a Tm of 35° C. with neurotensin bound.

[2] = Thermostability of solubilised adenosine A2a receptor and mutants (radioligand binding after or during heating); assay type: physicochemical; details: Ligand(−) format, binding after the heating step
From the text: as §1
• 1. 315 site-directed mutants made between residues 2-316 of A2aR. • 2. All of these mutants have been assayed for thermostability using an assay measuring agonist and antagonist binding after the heating step (Ligand(−) format as described in FIG. 12). • a. […] Mutations have been combined to generate mutants in a putative antagonist conformation. Wildtype A2aR has a Tm of 31° C. with ZM241385 bound. • a. Rant17 A54L+K122A+L235A Tm 48° C. (ZM241385 bound) • b. Rant19 A54L,T88A,V239A+A204L Tm 47° C. (ZM241385 bound) • c. Rant21 A54L,T88A,V239A+K122A Tm 49° C. (ZM241385 bound) • 4. Mutations from the agonist screen have been combined, but have led to only a very low level of improvement in Tm of +2° C.

Molecule | thermostability, heated in the presence of 3H-neurotensin [1] | thermostability measured with 3H-NECA (agonist) [2] | thermostability assayed with 3H-ZM241385 (antagonist) [2]
B1 | improved thermostability |  | 
B2 |  | improved thermostability | 
B3 |  | improved thermostability | 
B4 |  |  | improved thermostability
B5 |  | improved thermostability | 
B6 |  | improved thermostability | 
B7 |  | improved thermostability | 
B8 |  | improved thermostability | 
B9 |  |  | improved thermostability
B10 |  | improved thermostability | improved thermostability
B11 |  |  | improved thermostability
B12 |  | improved thermostability | 
B13 |  | improved thermostability | 
B14 |  |  | improved thermostability
B15 |  | improved thermostability | 
B16 |  | improved thermostability | 
B17 |  | improved thermostability | 
B18 |  | improved thermostability | 
B19 |  | improved thermostability | 
B20 |  |  | improved thermostability
B21 |  |  | improved thermostability
B22 |  |  | improved thermostability
B23 |  | improved thermostability | 
B24 |  | improved thermostability | 
B25 |  | improved thermostability | improved thermostability
B26 |  | improved thermostability | 
